Test results taken from patent US20180318386A1, “PEPTIDES AND METHODS OF TREATING ENDOMETRIOSIS USING THE SAME” (BIOINCEPT, LLC, priority 2014, published 2018).

Experiments:
[1] = biological target: Cartilage oligomeric matrix protein (human) (UniProt P49747); test: PIF affinity resin pull-down, CD4+ cell lysate, LC-MS/MS count
[2] = biological target: Histone H2A type 1-B/E (human) (UniProt P04908); test: as above
[3] = biological target: Isoform 2 of Protein SET (human) (UniProt Q01105); test: as above
[4] = biological target: 14-3-3 protein eta (human) (UniProt Q04917); test: PIF affinity resin pull-down, CD14+ cell lysate, LC-MS/MS count
[5] = biological target: 14-3-3 protein theta (human) (UniProt P27348); test: as above
[6] = biological target: 78 kDa glucose-regulated protein (human) (UniProt P11021); test: as above
[7] = biological target: Actin, cytoplasmic 2 (human) (UniProt P63261); test: as above
Annexin A1 (human) = Annexin A1 (human) (UniProt P04083); test: as above
[8] = biological target: Bridging integrator 2 (human) (UniProt Q9UBW5); test: as above
Endoplasmin (human) = Endoplasmin (human) (UniProt P14625); test: as above
[9] = biological target: Heat shock protein HSP 90-beta (human) (UniProt P08238); test: as above
[10] = biological target: Isoform 1 of Vinculin (human) (UniProt P18206); test: as above
[11] = biological target: Isoform 2 of Adenylyl cyclase-associated protein 1 (human) (UniProt Q01518); test: as above
[12] = biological target: Isoform SV of 14-3-3 protein epsilon (human) (UniProt P62258); test: as above
Matrin-3 (human) = Matrin-3 (human) (UniProt A8MXP9); test: as above
[13] = biological target: Myeloid cell nuclear differentiation antigen (human) (UniProt P41218); test: as above
Myosin-9 (human) = Myosin-9 (human) (UniProt P35579); test: as above
[14] = biological target: Nuclear autoantigenic sperm protein (human) (UniProt P49321); test: as above
Protein S100-A8 (human) = Protein S100-A8 (human) (UniProt P05109); test: as above
[15] = biological target: Protein disulfide-isomerase (human) (UniProt P07237); test: as above
Talin-1 (human) = Talin-1 (human) (UniProt Q9Y490); test: as above
Thrombospondin-1 (human) = Thrombospondin-1 (human) (UniProt P07996); test: as above
Tropomodulin-3 (human) = Tropomodulin-3 (human) (UniProt Q9NYL9); test: as above
[16] = biological target: Tubulin alpha-4A chain (human) (UniProt P68366); test: as above

Cartilage oligomeric matrix protein (human), sequence (P49747 21-757 limits assumed): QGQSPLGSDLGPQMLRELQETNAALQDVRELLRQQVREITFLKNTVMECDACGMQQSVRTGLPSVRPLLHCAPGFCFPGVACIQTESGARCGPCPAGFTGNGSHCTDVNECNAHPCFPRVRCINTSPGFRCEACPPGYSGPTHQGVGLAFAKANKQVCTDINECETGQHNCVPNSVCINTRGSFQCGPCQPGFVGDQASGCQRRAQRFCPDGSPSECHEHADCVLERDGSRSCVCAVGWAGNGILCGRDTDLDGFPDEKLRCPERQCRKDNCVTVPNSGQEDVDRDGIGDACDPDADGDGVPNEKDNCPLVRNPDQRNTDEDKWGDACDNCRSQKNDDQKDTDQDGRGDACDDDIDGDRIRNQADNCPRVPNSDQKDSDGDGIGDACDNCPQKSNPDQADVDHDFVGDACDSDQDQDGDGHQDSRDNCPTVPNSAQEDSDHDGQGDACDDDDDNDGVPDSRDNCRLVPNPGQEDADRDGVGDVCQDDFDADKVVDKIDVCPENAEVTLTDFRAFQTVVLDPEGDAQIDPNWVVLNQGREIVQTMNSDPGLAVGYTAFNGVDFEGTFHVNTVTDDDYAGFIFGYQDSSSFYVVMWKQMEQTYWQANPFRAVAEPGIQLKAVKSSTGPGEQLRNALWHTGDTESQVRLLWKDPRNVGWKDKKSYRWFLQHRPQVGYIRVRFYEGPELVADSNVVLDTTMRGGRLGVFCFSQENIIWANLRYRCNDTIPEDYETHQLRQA
Isoform SV of 14-3-3 protein epsilon (human), sequence (P62258 23-255 limits assumed): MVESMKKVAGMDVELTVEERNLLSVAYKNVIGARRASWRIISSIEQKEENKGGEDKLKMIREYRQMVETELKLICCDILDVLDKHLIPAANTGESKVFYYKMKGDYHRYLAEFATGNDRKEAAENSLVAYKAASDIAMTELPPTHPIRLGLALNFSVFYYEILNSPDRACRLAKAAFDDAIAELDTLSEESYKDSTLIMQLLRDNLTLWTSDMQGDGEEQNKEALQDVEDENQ
Nuclear autoantigenic sperm protein (human), sequence (P49321 2-788 limits assumed): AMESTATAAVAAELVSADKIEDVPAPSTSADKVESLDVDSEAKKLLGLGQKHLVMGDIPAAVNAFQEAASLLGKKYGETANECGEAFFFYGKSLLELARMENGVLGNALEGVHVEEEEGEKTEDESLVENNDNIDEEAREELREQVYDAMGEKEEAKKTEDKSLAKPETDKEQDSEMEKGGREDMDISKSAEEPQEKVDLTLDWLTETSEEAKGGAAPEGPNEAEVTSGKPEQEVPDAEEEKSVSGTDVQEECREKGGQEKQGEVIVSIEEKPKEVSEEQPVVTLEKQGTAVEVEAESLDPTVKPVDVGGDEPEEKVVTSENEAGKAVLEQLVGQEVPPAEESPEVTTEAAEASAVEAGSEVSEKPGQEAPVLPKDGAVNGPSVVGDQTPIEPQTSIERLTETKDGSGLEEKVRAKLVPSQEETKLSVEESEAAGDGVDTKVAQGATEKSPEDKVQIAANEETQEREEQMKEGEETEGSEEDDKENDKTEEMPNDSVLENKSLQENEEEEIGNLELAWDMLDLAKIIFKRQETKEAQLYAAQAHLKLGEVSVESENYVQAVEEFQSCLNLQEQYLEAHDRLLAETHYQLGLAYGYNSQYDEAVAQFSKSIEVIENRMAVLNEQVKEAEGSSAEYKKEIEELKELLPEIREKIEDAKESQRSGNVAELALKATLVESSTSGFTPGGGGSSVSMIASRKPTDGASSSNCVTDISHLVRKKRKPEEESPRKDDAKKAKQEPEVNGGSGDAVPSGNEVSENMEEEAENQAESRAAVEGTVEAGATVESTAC
78 kDa glucose-regulated protein (human), sequence (P11021 19-654 limits assumed): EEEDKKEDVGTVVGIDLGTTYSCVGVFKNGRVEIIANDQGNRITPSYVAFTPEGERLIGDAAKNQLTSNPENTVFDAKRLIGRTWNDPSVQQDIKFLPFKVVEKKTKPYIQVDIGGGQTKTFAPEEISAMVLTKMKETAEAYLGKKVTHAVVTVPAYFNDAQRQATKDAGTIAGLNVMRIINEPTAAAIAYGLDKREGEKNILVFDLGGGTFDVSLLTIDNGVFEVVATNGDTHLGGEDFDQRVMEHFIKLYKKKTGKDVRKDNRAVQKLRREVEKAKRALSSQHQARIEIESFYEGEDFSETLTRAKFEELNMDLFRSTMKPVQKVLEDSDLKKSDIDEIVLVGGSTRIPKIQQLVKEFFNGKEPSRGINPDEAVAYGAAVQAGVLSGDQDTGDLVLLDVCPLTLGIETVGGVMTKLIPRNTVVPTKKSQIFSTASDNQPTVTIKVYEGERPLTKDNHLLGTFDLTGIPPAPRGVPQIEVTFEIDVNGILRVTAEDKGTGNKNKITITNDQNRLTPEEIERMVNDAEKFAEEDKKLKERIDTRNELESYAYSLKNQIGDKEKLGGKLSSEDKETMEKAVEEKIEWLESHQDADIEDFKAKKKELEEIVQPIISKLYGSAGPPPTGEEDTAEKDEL
Thrombospondin-1 (human), sequence (P07996 19-1170 limits assumed): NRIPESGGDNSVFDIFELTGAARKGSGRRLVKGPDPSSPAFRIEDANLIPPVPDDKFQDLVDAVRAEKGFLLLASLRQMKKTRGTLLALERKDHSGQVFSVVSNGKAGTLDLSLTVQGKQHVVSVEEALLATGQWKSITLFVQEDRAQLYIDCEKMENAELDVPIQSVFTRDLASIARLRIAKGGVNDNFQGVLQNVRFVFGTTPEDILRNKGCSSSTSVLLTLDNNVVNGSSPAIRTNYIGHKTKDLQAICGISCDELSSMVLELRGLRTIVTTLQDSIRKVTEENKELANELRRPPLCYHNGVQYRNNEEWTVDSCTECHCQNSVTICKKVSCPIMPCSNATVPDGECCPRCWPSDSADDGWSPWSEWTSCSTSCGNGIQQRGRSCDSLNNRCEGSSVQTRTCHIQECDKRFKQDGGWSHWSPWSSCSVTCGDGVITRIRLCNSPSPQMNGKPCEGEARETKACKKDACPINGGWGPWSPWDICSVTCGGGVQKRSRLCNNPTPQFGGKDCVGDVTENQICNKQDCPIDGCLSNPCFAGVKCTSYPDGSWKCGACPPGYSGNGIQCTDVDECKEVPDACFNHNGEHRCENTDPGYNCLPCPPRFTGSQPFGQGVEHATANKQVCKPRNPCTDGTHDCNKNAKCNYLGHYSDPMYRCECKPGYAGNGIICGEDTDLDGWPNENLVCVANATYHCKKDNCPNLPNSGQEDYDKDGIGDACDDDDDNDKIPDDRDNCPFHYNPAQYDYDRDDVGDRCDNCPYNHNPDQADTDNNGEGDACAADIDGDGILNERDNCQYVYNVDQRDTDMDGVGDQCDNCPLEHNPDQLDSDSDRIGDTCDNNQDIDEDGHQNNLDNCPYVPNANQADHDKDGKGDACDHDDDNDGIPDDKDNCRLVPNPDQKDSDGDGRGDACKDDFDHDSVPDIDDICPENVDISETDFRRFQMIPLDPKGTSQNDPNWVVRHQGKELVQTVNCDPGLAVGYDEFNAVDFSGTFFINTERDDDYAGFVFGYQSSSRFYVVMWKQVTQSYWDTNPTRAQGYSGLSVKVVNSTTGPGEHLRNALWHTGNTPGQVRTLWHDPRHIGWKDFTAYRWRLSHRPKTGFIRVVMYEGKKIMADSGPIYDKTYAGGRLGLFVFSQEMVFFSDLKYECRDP
Protein disulfide-isomerase (human), sequence (P07237 18-508 limits assumed): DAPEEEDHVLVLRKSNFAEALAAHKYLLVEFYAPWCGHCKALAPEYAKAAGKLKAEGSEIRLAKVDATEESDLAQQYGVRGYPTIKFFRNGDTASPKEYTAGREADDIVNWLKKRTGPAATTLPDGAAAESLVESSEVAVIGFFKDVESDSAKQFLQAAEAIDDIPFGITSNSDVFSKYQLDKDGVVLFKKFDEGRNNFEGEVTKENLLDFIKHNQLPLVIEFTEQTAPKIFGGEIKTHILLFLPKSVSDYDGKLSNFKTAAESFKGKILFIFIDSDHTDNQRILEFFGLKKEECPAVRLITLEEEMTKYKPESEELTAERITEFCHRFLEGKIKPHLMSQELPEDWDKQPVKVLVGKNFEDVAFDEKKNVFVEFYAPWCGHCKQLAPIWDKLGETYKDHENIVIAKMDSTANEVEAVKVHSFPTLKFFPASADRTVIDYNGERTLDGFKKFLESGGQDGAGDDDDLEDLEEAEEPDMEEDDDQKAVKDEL
Tropomodulin-3 (human), sequence (Q9NYL9 whole entry): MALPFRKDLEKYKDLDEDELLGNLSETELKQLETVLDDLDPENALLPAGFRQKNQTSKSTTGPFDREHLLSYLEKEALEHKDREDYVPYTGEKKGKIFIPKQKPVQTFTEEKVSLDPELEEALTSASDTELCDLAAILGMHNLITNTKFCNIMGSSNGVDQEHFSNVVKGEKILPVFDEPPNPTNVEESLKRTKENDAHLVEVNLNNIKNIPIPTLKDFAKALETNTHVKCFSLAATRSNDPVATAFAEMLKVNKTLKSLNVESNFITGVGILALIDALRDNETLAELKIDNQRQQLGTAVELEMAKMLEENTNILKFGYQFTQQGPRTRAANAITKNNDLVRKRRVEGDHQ
14-3-3 protein theta (human), sequence (P27348 whole entry): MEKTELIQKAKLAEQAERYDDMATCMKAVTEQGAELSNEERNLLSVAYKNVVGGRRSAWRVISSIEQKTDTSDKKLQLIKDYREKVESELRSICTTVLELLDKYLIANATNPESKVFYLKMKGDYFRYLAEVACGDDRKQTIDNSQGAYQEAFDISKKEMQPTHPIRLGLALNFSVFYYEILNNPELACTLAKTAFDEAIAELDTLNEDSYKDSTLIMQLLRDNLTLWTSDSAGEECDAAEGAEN
Annexin A1 (human), sequence (P04083 2-346 limits assumed): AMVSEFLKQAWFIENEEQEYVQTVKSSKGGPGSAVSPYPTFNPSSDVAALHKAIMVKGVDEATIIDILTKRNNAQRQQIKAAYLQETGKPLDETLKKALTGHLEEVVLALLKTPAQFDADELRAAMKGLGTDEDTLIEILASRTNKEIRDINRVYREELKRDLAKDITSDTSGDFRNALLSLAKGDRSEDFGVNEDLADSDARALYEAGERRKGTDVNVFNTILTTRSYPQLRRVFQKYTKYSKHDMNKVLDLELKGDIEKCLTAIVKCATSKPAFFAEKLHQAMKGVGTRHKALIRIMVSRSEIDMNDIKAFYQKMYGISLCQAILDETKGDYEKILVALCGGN

PIF15 affinity resin (Cys-C6 spacer-PIF15 conjugated to agarose) (peptide)
1: Ave [4] | Inject 1 [4] | Inject 2 [4] | Ave [5] | Inject 1 [5] | Inject 2 [5] | Ave (Annexin A1 (human)) | Ave [8] | Inject 1 [8] | Ave (Endoplasmin (human)) | Inject 3 (Endoplasmin (human)) | Ave [9] | Inject 2 [9] | Inject 3 [9] | Ave (Matrin-3 (human)) | Inject 1 (Matrin-3 (human)) | Inject 3 (Matrin-3 (human)) | Ave [14] | Inject 3 [14] | Inject 2 (Protein S100-A8 (human)) | Ave (Tropomodulin-3 (human)) | Inject 1 (Tropomodulin-3 (human)) | Inject 3 (Tropomodulin-3 (human)) | Inject 3 [16]
5: Inject 1 (Talin-1 (human)) | Inject 2 (Thrombospondin-1 (human))
0: Inject 1 (Annexin A1 (human)) | Inject 2 (Annexin A1 (human)) | Inject 3 [8] | Inject 1 (Endoplasmin (human)) | Inject 2 [14]
8: Inject 3 (Talin-1 (human)) | Inject 3 (Thrombospondin-1 (human))
2: Ave [2] | Inject 1 [2] | Inject 2 [2] | Inject 3 [2] | Inject 3 [4] | Inject 3 [5] | Inject 3 (Annexin A1 (human)) | Inject 2 [8] | Inject 2 (Endoplasmin (human)) | Inject 1 [9] | Inject 2 [10] | Inject 3 [11] | Inject 3 [12] | Inject 2 (Matrin-3 (human)) | Ave [13] | Inject 1 [13] | Inject 2 [13] | Inject 3 [13] | Inject 1 [14] | Ave (Protein S100-A8 (human)) | Inject 1 (Protein S100-A8 (human)) | Inject 3 (Protein S100-A8 (human)) | Ave [15] | Inject 2 [15] | Inject 3 [15] | Inject 2 (Tropomodulin-3 (human)) | Ave [16] | Inject 1 [16]
10: Ave [1] | Inject 1 [1] | Inject 2 [1] | Ave (Myosin-9 (human)) | Inject 3 (Myosin-9 (human))
9: Inject 2 (Myosin-9 (human))
11: Inject 3 [1] | Inject 1 (Myosin-9 (human))
4: Ave [3] | Inject 2 [3] | Inject 3 [3] | Ave [6] | Inject 1 [11] | Inject 1 [12] | Inject 2 [12]
3: Inject 1 [3] | Inject 2 [6] | Inject 3 [6] | Ave [10] | Inject 1 [10] | Inject 3 [10] | Ave [11] | Inject 2 [11] | Ave [12] | Inject 1 [15] | Inject 2 [16]
7: Ave [7] | Inject 2 [7] | Inject 3 [7] | Ave (Thrombospondin-1 (human)) | Inject 1 (Thrombospondin-1 (human))
6: Inject 1 [6] | Inject 1 [7] | Ave (Talin-1 (human)) | Inject 2 (Talin-1 (human))
